Test results taken from PMC2386126, “The Mycobacterium tuberculosis Rv2540c DNA sequence encodes a bifunctional chorismate synthase” (BMC Biochemistry, 2008).

Target: the molecule itself
Assay: SEC

B1: chorismate synthase from M. tuberculosis (enzyme)
chain: MLRWITAGESHGRALVAVVEGMVAGVHVTSADIADQLARRRLGYGRGARMTFERDAVTVLSGIRHGSTLGGPIAIEIGNTEWPKWETVMAADPVDPAELADVARNAPLTRPRPGHADYAGMLKYGFDDARPVLERASARETAARVAAGTVARAFLRQALGVEVLSHVISIGASAPYEGPPPRAEDLPAIDASPVRAYDKAAEADMIAQIEAAKKDGDTLGGVVEAVALGLPVGLGSFTSGDHRLDSQLAAAVMGIQAIKGVEIGDGFQTARRRGSRAHDEMYPGPDGVVRSTNRAGGLEGGMTNGQPLRVRAAMKPISTVPRALATVDLATGDEAVAIHQRSDVCAVPAAGVVVETMVALVLARAALEKFGGDSLAETQRNIAAYQRSVADREAPAARVSG
notes: also called MtCS; CS
stoichiometry N: 2
